Measured values published in patent publication US20230002499A1, “METHODS OF CANCER TREATMENT WITH ANTI-OX40 ANTIBODY IN COMBINATION WITH CHEMOTHERAPEUTIC AGENTS” (BeiGene (Beijing) Co., Ltd., priority 2019, published 2023).

T1: full-length human OX40 expressed on HuT78/OX40 cells (human, UniProt P43489 29-277)
T1 sequence: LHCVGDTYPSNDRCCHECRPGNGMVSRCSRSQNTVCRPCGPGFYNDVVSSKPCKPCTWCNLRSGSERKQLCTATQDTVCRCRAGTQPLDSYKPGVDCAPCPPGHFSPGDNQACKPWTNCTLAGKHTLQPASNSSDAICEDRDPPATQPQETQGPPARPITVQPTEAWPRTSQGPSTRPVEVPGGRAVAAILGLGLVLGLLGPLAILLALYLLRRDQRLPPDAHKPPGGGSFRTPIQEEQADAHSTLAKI


How the values were obtained:
[1] = molecular target: T1, full-length human OX40 expressed on …; test: flow cytometry on live HuT78/OX40 cells; top of fitted curve
Description: To evaluate the binding activity of anti-OX40 antibodies to bind OX40 expressed on the surface of live cells, HuT78 cells were transfected with human OX40 as described in Example 1 to create an OX40 expressing line. Live HuT78/OX40 cells were seeded in 96-well plate and were incubated with a serial dilution of various anti-OX40 antibodies. Goat anti-Human IgG-FITC (Cat: A0556, Beyotime) was used as a secondary antibody to detect antibody binding to the cell surface. EC₅₀ values for dose-dependent binding to human OX40 were determined by fitting the dose-response data to the four-parameter logistic model with GraphPad Prism.

[2] = system: CT26WT cells, a murine colon carcinoma cell line; test: CT26WT syngeneic mouse model, OX86 in combination with Oxaplatin/5-Fu; format: in vivo; details: OX86 0.08 mg/kg QW i.p.; Oxaplatin 1.5 mg/kg QW i.p.; 5-Fu 15 mg/kg once daily five days per week i.p.
Description: Female BALB/c mice were subcutaneously implanted with 1×10^5 CT26WT cells, a murine colon carcinoma cell line, in 150 μL PBS in the right flank. After inoculation, the mice were randomized into 4 groups with 20 animals in each group. Mice were treated with vehicle as a control.
OX86 is a rat anti-mouse OX40 antibody previously disclosed in WO2016/057667, which was further engineered with mouse IgG2a constant regions in order to reduce its immunogenicity and also keep its Fc-mediated functions in mouse studies. The VH and VL regions of OX86 are provided below. […] As monotherapy, OX86 was administered at 0.08 mg/kg once per week (QW) by intraperitoneal (i.p.) injection.
Oxaplatin/5-Fluorouracil (5-Fu) was administered as a single agent to the mice. The OX86 antibody in combination with Oxaplatin/5-Fu was administered as combination therapy. OX86 (0.08 mg/kg) was administered once per week by intraperitoneal (i.p.) injection. Oxaplatin (1.5 mg/kg) was also dosed once per week (QW) intraperitoneally, and 5-Fu was given at 15 mg/kg once daily for five consecutive days per week by i.p. injection. […] Tumor volume was determined twice weekly in two dimensions by using a caliper and was expressed in mm^3 using the formula: V=0.5(a×b^2) where a and b are the long and short diameters of the tumor, respectively. […] Tumor growth inhibition (TGI) is calculated using the following formula: […]

Row | Top (MFI), Mean [1] [MFI] | Molecule | Mean Tumor Volume on Day 11 (Mean ± SEM) [2] [mm^3] | TGI (%) on Day 11 [2] [%]
1 | 725 | ch445 (antibody, V domains shown) VH: EVQLQQSGPELVKPGASVKMSCKASGYKFTSYIIHWVKQKPGQGLEWIGYINPYNDGTRYNEKFKGKATLTSDKSSSTAYMEYSSLTSEDSAVYYCARGYYGSSYAMDYWGQGTSVTVSS VL: DIQMTQTTSSLSASLGDRVTISCSASQGISNYLNWYQQKPDGTIKLLIYDTSTLYSGVPSRFSGSGSGTDYFLTISNLEPEDIATYYCQQYSKLPYTFGGGTKLEKK |  | 
2 |  | OX86: rat anti-mouse OX40 antibody disclosed in WO2016/057667, engineered with mouse IgG2a constant regions; VH SEQ ID NO: 32, VL SEQ ID NO: 33 (antibody, V domains shown, mouse IgG2a constant regions) VH: QVQLKESGPGLVQPSQTLSLTCTVSGFSLTGYNLHWVRQPPGKGLEWMGRMRYDGDTYYNSVLKSRLSISRDTSKNQVFLKMNSLQTDDTAIYYCTRDGRGDSFDYWGQGVMVTVSS VL: DIVMTQGALPNPVPSGESASITCRSSQSLVYKDGQTYLNWFLQRPGQSPQLLTYWMSTRASGVSDRFSGSGSGTYFTLKISRVRAEDAGVYYCQQVREYPFTFGSGTKLEIK | 969.2 ± 229.0 | 48
3 | 620 | 445-2 (antibody, human IgG1, V domains shown) VH: QVQLVQSGAEVKKPGSSVKVSCKASGYKFTSYIIHWVRQAPGQGLEWMGYINPYNEGTRYAQKFQGRVTLTADKSTSTAYMELSSLRSEDTAVYYCARGYYGSSYAMDYWGQGTTVTVSS VL: DIQMTQSPSSLSASVGDRVTITCSASQGISNYLNWYQQKPGKAIKLLIYDASTLYSGVPSRFSGSGSGTDFTLTISSLQPEDFATYYCQQYSKLPYTFGGGTKVEIK |  | 
4 | 525 | 445-1 (antibody, IgG1, V domains shown, Full-length antibody with human wild-type IgG1 (IgG1wt) and kappa constant regions) VH: QVQLVQSGAEVKKPGSSVKVSCKASGYKFTSYIIHWVRQAPGQGLEWMGYINPYNDGTRYNQKFQGRVTLTSDKSTSTAYMELSSLRSEDTAVYYCARGYYGSSYAMDYWGQGTTVTVSS VL: DIQMTQSPSSLSASVGDRVTITCSASQGISNYLNWYQQKPGKAIKLLIYDTSTLYSGVPSRFSGSGSGTDYTLTISSLQPEDFATYYCQQYSKLPYTFGGGTKVEIK |  | 
5 | 910 | 445-3 (antibody, human IgG1, V domains shown, Human IgG1 wild type format) VH: QVQLVQSGAEVKKPGSSVKVSCKASGYKFTSYIIHWVRQAPGQGLEWMGYINPYNEGTRYNQKFQGRVTLTADKSTSTAYMELSSLRSEDTAVYYCARGYYGSSYAMDYWGQGTTVTVSS VL: DIQMTQSPSSLSASVGDRVTITCRASQGISNYLNWYQQKPDGAIKLLIYDASTLYSGVPSRFSGSGSGTDFTLTISSLQPEDFATYYCQQYSKLPYTFGGGTKVEIK |  | 
6 | 892 | 445-3 IgG4 (antibody, V domains shown) VH: QVQLVQSGAEVKKPGSSVKVSCKASGYKFTSYIIHWVRQAPGQGLEWMGYINPYNEGTRYNQKFQGRVTLTADKSTSTAYMELSSLRSEDTAVYYCARGYYGSSYAMDYWGQGTTVTVSS VL: DIQMTQSPSSLSASVGDRVTITCRASQGISNYLNWYQQKPDGAIKLLIYDASTLYSGVPSRFSGSGSGTDFTLTISSLQPEDFATYYCQQYSKLPYTFGGGTKVEIK |  | 
